The source of these data is PMC6163455, “β-Lactamase Tools for Establishing Cell Internalization and Cytosolic Delivery of Cell Penetrating Peptides” (Biomolecules, 2018).

B1: TAT_SpyT (peptide)
peptide: GRKKRRQRRRGASAHIVMVDAYKPTKG
notes: canonical CPP TAT; source: synthetic peptide (Pepscan or Mimotopes)
B2: 0084_SpyT (peptide)
peptide: RKQKSLQTKLAENPPVPRKKRQSRPRWKQWLQKGASAHIVMVDAYKPTKG
notes: phylomer CPP 0084, discovered from phylomer peptide libraries; source: synthetic peptide (Pepscan or Mimotopes)
B3: 1746_SpyT (peptide)
peptide: PLKPKKPKTQEKKKKQPPKPKKPKTQEKKKKQPPKPKRGASAHIVMVDAYKPTKG
notes: source: synthetic peptide (Pepscan or Mimotopes)
B4: 0167_SpyT (peptide)
peptide: PSSTPATNVARPRLNPIRGHKFALAVPNSRTRGASAHIVMVDAYKPTKG
notes: phylomer CPP 0167, discovered from phylomer peptide libraries; source: synthetic peptide (Pepscan or Mimotopes)
B5: 0169_SpyT (peptide)
peptide: PLTQRTLQRGKKPKQRQNWKKARTSSAKTAPKTVVSRTTSQRKGASAHIVMVDAYKPTKG
notes: phylomer CPP 0169, discovered from phylomer peptide libraries; source: synthetic peptide (Pepscan or Mimotopes)
B6: 1869_SpyT (peptide)
peptide: PPHPRPLPAPAQSRKKQKGRAGRGHEKTGASVLRGPQKPHPLPAQLRGASAHIVMVDAYKPTKG
notes: phylomer CPP 1869, discovered from phylomer peptide libraries; source: synthetic peptide (Pepscan or Mimotopes)
B7: 1746c27_SpyT (peptide)
peptide: KKKKQPPKPKKPKTQEKKKKQPPKPKRGASAHIVMVDAYKPTKG
notes: phylomer CPP 1746c27, discovered from phylomer peptide libraries; source: synthetic peptide (Pepscan or Mimotopes)
B8: 1788_SpyT (peptide)
peptide: LFVDKATPQIYYTPSESVTVKSKGKNRRKKSGASAHIVMVDAYKPTKG
notes: phylomer CPP 1788, discovered from phylomer peptide libraries; source: synthetic peptide (Pepscan or Mimotopes)

The target in this test is T1, SpyCatcher_β-lactamase protein ( | E. coli).
T1 construct: N-terminal leader as printed; TEM-1 β-lactamase of Escherichia coli without its signal peptide; C-terminal tail as printed; Printed mass 42.4 kDa; also called SpyC_β-lactamase; source: E. coli BL21 (DE3) Gold, purified (IMAC, SEC)
The test is described as follows: SpyTag/SpyCatcher covalent conjugation (isopeptide bond), analysed by SDS-PAGE; peptide:protein ratio 1.125:1 or 1.25:1, 50 µM SpyC_BLA; 50 mM HEPES, 200 mM NaCl, pH 7.0; 2 h at room temperature and/or overnight at 4 °C; conjugation efficiencies analysed on 4-12% NuPAGE Bis-Tris gels; conjugates then used for uptake into CHO-K1 and T47D cells. Particulars: both partners purified.
For B1, the binding result is on record as “binds”. For the molecule B2, the binding result is given as “binds”. B3: the binding result is given as “binds”. B4: the binding result is listed as “binds”. On to B5, for which the binding result is “binds”. With B6, the binding result is “binds”. As for B7, the binding result is “binds”.

With B8, the binding result is “binds”.
